These are literature values, as cited in publication PMC4547496.

pKd: −log10 of the molar value.

One data set concerns the target Gαo (Homo sapiens) (UniProt P09471). The data set can be described thus: FCPIA.
The target in data set [1] is BAG family nucleotide exchange factor (Homo sapiens) (UniProt Q99933). The data set can be described thus: FCPIA.
Chain of UniProt Q99933 (Q99933 whole entry): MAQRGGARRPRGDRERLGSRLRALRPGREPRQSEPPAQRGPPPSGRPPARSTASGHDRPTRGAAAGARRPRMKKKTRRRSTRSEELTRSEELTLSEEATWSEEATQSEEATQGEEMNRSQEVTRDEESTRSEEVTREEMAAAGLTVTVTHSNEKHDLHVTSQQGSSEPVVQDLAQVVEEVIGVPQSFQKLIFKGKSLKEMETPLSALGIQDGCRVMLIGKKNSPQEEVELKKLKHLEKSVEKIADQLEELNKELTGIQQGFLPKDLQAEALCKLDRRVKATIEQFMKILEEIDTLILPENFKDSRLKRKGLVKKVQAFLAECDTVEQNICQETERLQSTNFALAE

Chain of UniProt P09471 (P09471 2-354): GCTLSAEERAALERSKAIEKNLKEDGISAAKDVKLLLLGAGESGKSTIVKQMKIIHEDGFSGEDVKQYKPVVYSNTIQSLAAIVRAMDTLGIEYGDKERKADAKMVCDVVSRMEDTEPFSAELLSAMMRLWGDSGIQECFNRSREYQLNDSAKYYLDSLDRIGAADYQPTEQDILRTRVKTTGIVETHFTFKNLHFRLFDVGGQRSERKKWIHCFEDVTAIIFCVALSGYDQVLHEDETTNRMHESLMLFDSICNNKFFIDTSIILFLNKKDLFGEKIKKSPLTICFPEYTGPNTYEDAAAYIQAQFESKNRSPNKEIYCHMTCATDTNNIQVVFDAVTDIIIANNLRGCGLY

Turning to RGS4 (from UniProt P49798), the pKd with Gαo (Homo sapiens) was 8.40.
For the substance Hsp70 (from UniProt P0DMV8), the pKd in data set [1] is 6.00.

By pKd is commonly meant the Kd on a negative log10 scale, so that one unit is a factor of ten.
